One molecule from article PMC9076634, “Fibronectin binding protein B binds to loricrin and promotes corneocyte adhesion by Staphylococcus aureus” (Nature Communications, 2022) can be followed below.

The target in this assay is T1, recombinant GST-tagged human loricrin (GST-loricrin) (human, UniProt P23490 1-312).
T1 construct: loricrin, human, full length; also called GST-tagged full length loricrin
T1 sequence (looked up): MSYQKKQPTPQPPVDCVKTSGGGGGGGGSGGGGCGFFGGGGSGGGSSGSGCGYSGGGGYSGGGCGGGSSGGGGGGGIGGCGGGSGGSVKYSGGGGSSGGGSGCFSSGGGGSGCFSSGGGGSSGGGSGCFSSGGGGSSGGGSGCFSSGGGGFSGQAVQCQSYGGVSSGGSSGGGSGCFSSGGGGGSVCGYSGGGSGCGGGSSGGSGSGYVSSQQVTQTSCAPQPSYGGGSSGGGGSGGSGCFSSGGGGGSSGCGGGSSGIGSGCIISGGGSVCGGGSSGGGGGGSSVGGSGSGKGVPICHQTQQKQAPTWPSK
Briefly: dynamic force spectroscopy (AFM); as the single-molecule force spectroscopy, retraction speeds 1, 2.5, 5 and 10 µm s^-1; Bell-Evans fit of the high-force regime (loading rates 1.4 × 10^4 to 5 × 10^5 pN s^-1). As to conditions: one partner purified.

B1: fibronectin binding protein B (FnBPB) on S. aureus SH1000 4X (pFnBPB) cells (natural protein)
chain: ASEQNNTTVEESGSSATESKASETQTTTNNVNTIDETQSYSATSTEQPSQSTQVTTEEAPKTVQAPKVETSRVDLPSEKVADKETTGTQVDIAQPSNVSEIKPRMKRSTDVTAVAEKEVVEETKATGTDVTNKVEVEEGSEIVGHKQDTNVVNPHNAERVTLKYKWKFGEGIKAGDYFDFTLSDNVETHGISTLRKVPEIKSTDGQVMATGEIIGERKVRYTFKEYVQEKKDLTAELSLNLFIDPTTVTQKGNQNVEVKLGETTVSKIFNIQYLGGVRDNWGVTANGRIDTLNKVDGKFSHFAYMKPNNQSLSSVTVTGQVTKGNKPGVNNPTVKVYKHIGSDDLAESVYAKLDDVSKFEDVTDNMSLDFDTNGGYSLNFNNLDQSKNYVIKYEGYYDSNASNLEFQTHLFGYYNYYYTSNLTWKNGVAFYSNNAQGDGKDKLKEPIIEHSTPIELEFKSEPPVEKHELTGTIEESNDSKPIDFEYHTAVEGAEGHAEGTIETEEDSIHVDFEESTHENSKHHADVVEYEEDTNPGGGQVTTESNLVEFDEDSTKGIVTGAVSDHTTIEDTKEYTTESNLIELVDELPEEHGQAQGPIEEITENNHHISHSGLGTENGHGNYGVIEEIEENSHVDIKSELGYEGGQNSGNQSFEEDTEEDKPKYEQGGNIVDIDFDSVPQIHGQNNGNQSFEEDTEKDKPKYEQGGNIIDIDFDSVPHIHGFNKHTEIIEEDTNKDKPNYQFGGHNSVDFEEDTLPQVSGHNEGQQTIEEDTTPPIVPPTPPTPEVPSEPETPTPPTPEVPSEPETPTPPTPEVPTEPGKPIPPAKEEPKKPSKPVEQGKVVTPVIEINEKVKAVVPTKKAQSKKSELPET
Turning to B1, the koff amounted to 5.8e-09 s⁻¹.
